Entries after “also recorded” stand apart in the source; their conditions may differ. No end group written: not given here.
Experiments:
[1] = tested on: HOXA9 expression in 293T cells; test: HOXA9 expression in transfected 293T cells; type: cell-based; details: overexpression, real-time PCR, empty vector control
[2] = tested on: HOXC8 expression in 293T cells; test: HOXC8 expression in transfected 293T cells; type: cell-based; details: overexpression, real-time PCR, empty vector control
HOXA9 = test: Anti-HA ChIP of CyP33 binding at HOXA9; type: cell-based; details: 293T cells, typical for at least three independent experiments
HOXC8 = test: Anti-HA ChIP of CyP33 binding at HOXC8; type: cell-based; details: 293T cells, typical for at least three independent experiments
[3] = tested on: HOXC8 locus in K562 cells; details: ref Fair et al., 2001; cited from earlier work
MLL1 PHD3-Bromo cassette [4] = molecular target: T1, MLL1 PHD3-Bromo cassette (Homo sapiens, UniProt Q03164, DEL1666-1702); test: ITC binding of H3K4me peptides to coexpressed MLL1 PHD3-Bromo cassette; details: vs H3K4me3 peptide without added Ala
[5] = molecular target: coexpressed MLL1 PHD3-Bromo cassette (residues 1566–1784, with deletion of 1666–1702 ZA loop segment) (human) (UniProt Q03164); test: ITC
MLL1 PHD3-Bromo cassette [6] = molecular target: T1, MLL1 PHD3-Bromo cassette; test: Gel filtration complex formation with MLL1 PHD3-Bromo cassette; type: binding; details: for binding of CyP33 mutants to PHD3-Bromo: in vitro, Figure 4, lines 7 and 11
H3 acetylation at HOXA9 = test: ChIP with anti-H3 pan acetyl; type: cell-based; details: 293T cells, overexpression, anti-H3 pan acetyl (AcH3), typical for at least three independent experiments
H3 acetylation at HOXC8 = test: ChIP with anti-H3 pan acetyl; type: cell-based; details: 293T cells, overexpression, anti-H3 pan acetyl (AcH3), typical for at least three independent experiments
[7] = tested on: MLL1 PHD3-Bromo cassette (1566–1784); test: 1H,15N-HSQC titration of MLL1 PHD3-Bromo cassette with acetyllysine peptides; type: binding; details: five equivalents of H4(7-17)K12ac or H4(14-19)K16ac, H3K23ac and H3K27ac data not shown
[8] = tested on: MLL1 Bromo alone (1639–1784); test: 1H,15N-HSQC titration of MLL1 Bromo alone with acetyllysine peptides; type: binding; details: five equivalents of H4(7-17)K12ac or H4(14-19)K16ac, H3K23ac and H3K27ac data not shown
[9] = molecular target: complex of MLL1 PHD3-Bromo cassette and full-length CyP33 (UniProt Q03164); test: ITC
MLL1 PHD3 domain alone = test: Gel filtration complex formation with MLL1 PHD3 alone; type: binding
[10] = tested on: MLL1 PHD3-Bromo mutant, where Pro1629 was replaced by Ala; test: Complex formation with MLL1 PHD3-Bromo Pro1629 to Ala mutant; type: binding; details: in the absence of CyP33 PPIase domain
MLL1 PHD3 M1606D mutant = test: Complex formation with MLL1 PHD3 M1606D; type: binding; details: Figure 4, line 10
MLL2 PHD3 = test: Gel filtration complex formation with MLL2 PHD3; type: binding
MLL2 PHD3 D1375M mutant = test: Complex formation with MLL2 PHD3 D1375M; type: binding; details: Figure 4, line 13
MLL1 (1566–1639) = test: NMR monitoring of Pro1629 cis-to-trans transition; type: binding; details: 1H,13C-HSQC
MLL1 PHD3 = test: 1H,15N-HSQC Trp1594 indole resonance on sequential addition; type: binding; details: H3K4me3 first (binary complex), then CyP33 RRM (ternary complex)
AU-rich RNAs = details: ref Mi et al., 1996; Wang et al., 2008; cited from earlier work
[11] = molecular target: MLL1 PHD3-Bromo Y1581A mutant (human, UniProt Q03164 1566-1665; Q03164 1703-1784, Y1581A); test: ITC
[12] = molecular target: MLL1 PHD3-Bromo Q1587A mutant (human, UniProt Q03164 1566-1665; Q03164 1703-1784, Q1587A); test: ITC
CyP33 RRM (2–82) = molecular target: T2, CyP33 RRM (2–82) (UniProt Q9UNP9 2-82); test: NMR structure
T2 sequence (looked up): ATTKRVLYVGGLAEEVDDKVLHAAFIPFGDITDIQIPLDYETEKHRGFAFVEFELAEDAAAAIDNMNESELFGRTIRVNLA

CyP33 RRM (1–82) = molecular target: T3, CyP33 RRM (1–82) (UniProt Q9UNP9 1-82); test: NMR titration
T3 sequence (looked up): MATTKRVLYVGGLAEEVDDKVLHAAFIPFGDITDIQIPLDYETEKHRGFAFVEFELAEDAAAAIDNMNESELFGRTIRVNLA

## CyP33: cyclophilin with N-terminal RRM and C-terminal PPIase domain; FLAG-HA-tagged in 293T experiments
[1]
  HOXA9 repression: reduced
[2]
  HOXC8 repression: reduced
HOXA9
  CyP33 binding to HOXA9: bound to HOXA9 and HOXC8
HOXC8
  CyP33 binding to HOXC8: bound to HOXA9 and HOXC8
[3]
  repression of HOXC8 locus: repressor of the HOXC8 locus

## C[C@H](N)C(=O)N[C@@H](C)C(=O)N[C@@H](C)C(=O)N[C@@H](C)C(=O)N[C@@H](CCCNC(=N)N)C(=O)N[C@H](C(=O)N[C@@H](CCCC[N+](C)(C)C)C(=O)N[C@@H](CCC(N)=O)C(=O)N[C@H](C(=O)N[C@@H](C)C(=O)N[C@@H](CCCNC(=N)N)C(=O)N[C@@H](CCCCN)C(=O)N[C@@H](CO)C(=O)N[C@H](C(=O)NCC(=O)NCC(=O)N[C@@H](CCCCN)C(=O)N[C@@H](C)C(=O)O)[C@@H](C)O)[C@@H](C)O)[C@@H](C)O [Ala-Ala-Ala tri-peptide]
MLL1 PHD3-Bromo cassette [4]
  increase of dissociation constant on N-terminal extension: 15 fold

## H3K4me3 peptide with an Ala-Ala-Ala tripeptide added at the N terminus
[5]
  Kd: 64 µM

## F196E/M197E: CyP33 with F196E/M197E double mutation in the PPIase domain
MLL1 PHD3-Bromo cassette [6]
  binding of CyP33 mutants to PHD3-Bromo: reduced the binding between CyP33 and PHD3-Bromo
[1]
  HOXA9 repression: did not cause any repression of either HOX gene; also recorded: not in cells expressing the F51D (green bars)or F196E/M197E
[2]
  HOXC8 repression: did not cause any repression of either HOX gene; also recorded: not in cells expressing the F51D (green bars)or F196E/M197E
H3 acetylation at HOXA9
  H3 acetylation at HOXA9: not in cells expressing the F51D (green bars) and F196E/M197E
HOXA9
  CyP33 binding to HOXA9: bound to HOXA9 and HOXC8
HOXC8
  CyP33 binding to HOXC8: bound to HOXA9 and HOXC8

## H3(1-15)K4me1 peptide (from UniProt P68431 2-16)
[5]
  Kd: 53 µM

## F51D: CyP33 with F51D mutation in the RRM domain
MLL1 PHD3-Bromo cassette [6]
  binding of CyP33 mutants to PHD3-Bromo: sufficient to abolish the binding between CyP33 and MLL1 PHD3-Bromo
[1]
  HOXA9 repression: did not cause any repression of either HOX gene; also recorded: not in cells expressing the F51D; also recorded: unable to deacetylate and repress target genes
[2]
  HOXC8 repression: did not cause any repression of either HOX gene; also recorded: not in cells expressing the F51D; also recorded: unable to deacetylate and repress target genes
H3 acetylation at HOXA9
  H3 acetylation at HOXA9: not in cells expressing the F51D; also recorded: unable to deacetylate
H3 acetylation at HOXC8
  H3 acetylation at HOXC8: unable to deacetylate
HOXA9
  CyP33 binding to HOXA9: variably reduced CyP33 binding; also recorded: only partially disrupted in its ability to bind to HOXA9 and HOXC8
HOXC8
  CyP33 binding to HOXC8: variably reduced CyP33 binding; also recorded: only partially disrupted in its ability to bind to HOXA9 and HOXC8

## C[C@H](N)C(=O)N[C@@H](C)C(=O)N[C@@H](CCCNC(=N)N)C(=O)N[C@H](C(=O)N[C@@H](CCCC[N+](C)(C)C)C(=O)N[C@@H](CCC(N)=O)C(=O)N[C@H](C(=O)N[C@@H](C)C(=O)N[C@@H](CCCNC(=N)N)C(=O)N[C@@H](CCCCN)C(=O)N[C@@H](CO)C(=O)N[C@H](C(=O)NCC(=O)NCC(=O)N[C@@H](CCCCN)C(=O)N[C@@H](C)C(=O)O)[C@@H](C)O)[C@@H](C)O)[C@@H](C)O [single Ala]
MLL1 PHD3-Bromo cassette [4]
  increase of dissociation constant on N-terminal extension: 6 fold

## H4(14-19)K16ac: acetylated histone H4 peptide
[7]
  complexation shifts, PHD3-Bromo cassette: did not observe any complexation shifts
[8]
  complexation shifts, Bromo alone: did not observe any complexation shifts

## H3(1-15)K4me2 peptide (from UniProt P68431 2-16)
[5]
  Kd: 6.9 µM
[9]
  Kd: 15.2 µM

## H4(7-17)K12ac: acetylated histone H4 peptide
[7]
  complexation shifts, PHD3-Bromo cassette: did not observe any complexation shifts
[8]
  complexation shifts, Bromo alone: did not observe any complexation shifts

## H3K4me3 peptide with a single Ala added at the N terminus
[5]
  Kd: 26 µM

## H3(1-15)K4me3 peptide (from UniProt P68431 2-16)
[5]
  Kd: 4.3 µM
[9]
  Kd: 11.6 µM

B1: CyP33 RRM: RRM domain (1–82) of CyP33 (protein)
chain: T3 sequence (looked up)
MLL1 PHD3 domain alone
  complex formation with PHD3 alone: formed a complex with the PHD3 domain alone
MLL1 PHD3-Bromo cassette [6]; gel filtration
  complex formation with PHD3-Bromo cassette: not with the PHD3-Bromo cassette
[10]
  interaction with PHD3-Bromo P1629A: interacted with a PHD3-Bromo mutant
MLL1 PHD3 M1606D mutant
  complex formation with MLL1 PHD3 M1606D: completely disrupted its complex formation with CyP33 RRM
MLL2 PHD3
  binding to MLL2 PHD3: does not bind CyP33 RRM
MLL2 PHD3 D1375M mutant
  binding to MLL2 PHD3 D1375M: converted MLL2 PHD3 to a CyP33 RRM binding partner
MLL1 (1566–1639)
  His1628-Pro1629 peptide bond configuration change: transits from cis-to-trans configuration upon interaction with CyP33 RRM
MLL1 (1566–1639); major cross peak 25.3 ppm (cis) in free state
  Pro1629 Cγ chemical shift upon addition: 27.5 ppm
MLL1 PHD3
  Trp1594 indole resonance shift on sequential addition: upfield shift
AU-rich RNAs
  RNA preference: some preference for AU-rich RNAs

B2: H3(1-15)K4me3 peptide (peptide, UniProt P68431 2-16, looked up)
peptide: ARTK(Me3)QTARKSTGGKA
[11]
  binding result: binds
[12]
  binding result: binds

B3: interacting segment of MLL1 PHD3 (1585–1628) (domain or fragment, human, UniProt Q03164 1585-1628, looked up)
chain: MMQCGKCDRWVHSKCENLSDEMYEILSNLPESVAYTCVNCTERH
CyP33 RRM (2–82)
  binding result: binds

B4: MLL1 (1566–1639) (domain or fragment, human, UniProt Q03164 1566-1639, looked up)
chain: GNFCPLCDKCYDDDDYESKMMQCGKCDRWVHSKCENLSDEMYEILSNLPESVAYTCVNCTERHPAEWRLALEKE
CyP33 RRM (1–82)
  binding result: binds
